First the molecules themselves.
B1: RapZ_(1–279), BACTH fusion [E. coli] / full-length RNase E (RneFL), BACTH fusion [E. coli] (parent complex)
chain 1: MVLMIVSGRSGSGKSVALRALEDMGFYCVDNLPVVLLPDLARTLADREISAAVSIDVRNMPESPEIFEQAMSNLPDAFSPQLLFLDADRNTLIRRYSDTRRLHPLSSKNLSLESAIDKESDLLEPLRSRADLIVDTSEMSVHELAEMLRTRLLGKRERELTMVFESFGFKHGIPIDADYVFDVRFLPNPHWDPKLRPMTGLDKPVAAFLDRHTEVHNFIYQTRSYLELWLPMLETNNRSYLTVAIGCTGGKHRSVYIAEQLADYFRSRGKNVQSRHRTL
chain 2: not shown
B2: RapZ_(1–279), BACTH fusion [E. coli] / itself (parent complex)
chain: B1 chain 1

In the first assay the parent is B1. In words: BACTH assay (β-galactosidase activity); top panel; T18-RapZ1-279 variant with T25-RneFL (pYG100); mean ± SD, n ≥ 2; parent: 1.7e+03; read off a plot.
In the case of chain 1 T278G, the response was approximately 980 Miller units.

As for chain 1 L279G, the response is approximately 100 Miller units.

As to chain 1 T278G, chain 1 L279G, the response is approximately 50 Miller units.

The variants in a further assay derive from B2. In words: BACTH assay (self-interaction; β-galactosidase activity); bottom panel; same RapZ1-279 variant fused to T18 and to T25; mean ± SD, n ≥ 2; parent: 4.1e+03; read off a plot.
For the variant MVLMIVSGRSGSGKSVALRALEDMGFYCVDNLPVVLLPDLARTLADREISAAVSIDVRNMPESPEIFEQAMSNLPDAFSPQLLFLDADRNTLIRRYSDTRRLHPLSSKNLSLESAIDKESDLLEPLRSRADLIVDTSEMSVHELAEMLRTRLLGKRERELTMVFESFGFKHGIPIDADYVFDVRFLPNPHWDPKLRPMTGLDKPVAAFLDRHTEVHNFIYQTRSYLELWLPMLETNNRSYLTVAIGCTGGKHRSVYIAEQLADYFRSRGKNVQSRHRTG [chain 1 L279G], the response is approximately 3300 Miller units.

As to MVLMIVSGRSGSGKSVALRALEDMGFYCVDNLPVVLLPDLARTLADREISAAVSIDVRNMPESPEIFEQAMSNLPDAFSPQLLFLDADRNTLIRRYSDTRRLHPLSSKNLSLESAIDKESDLLEPLRSRADLIVDTSEMSVHELAEMLRTRLLGKRERELTMVFESFGFKHGIPIDADYVFDVRFLPNPHWDPKLRPMTGLDKPVAAFLDRHTEVHNFIYQTRSYLELWLPMLETNNRSYLTVAIGCTGGKHRSVYIAEQLADYFRSRGKNVQSRHRGL [chain 1 T278G], the response is approximately 4000 Miller units.
